Laboratory results as given in patent US6147204, “Nucleic acid ligand complexes” (NeXstar Pharmaceuticals, Inc.).

What was measured:
[1] = target: T1, bFGF (basic fibroblast growth factor) (UniProt P09038 P09038:143-288); assay: binding affinity stated as 1 nM; conditions: blunt-ended hairpin, Tm 68 C
[2] = target: T1, bFGF (basic fibroblast growth factor); assay: 5'-32P binding assay; identical to 225T3; conditions: label: 5'-32P; hairpin
[3] = target: T1, bFGF (basic fibroblast growth factor); assay: 5'-32P binding assay; same affinity as unconjugated 225T3; conditions: label: 5'-32P; hairpin
Description: Preparation and Functional Properties of PEG Conjugated and Cholesterol-Derivatized Nucleic Acid Ligands A PEG 3400 conjugate of a Nucleic Acid Ligand retains the binding affinity of the non-conjugated molecule The ability of a bFGF ligand/PEG-3400 conjugate to bind bFGF was tested. Molecule 225T3 (SEQ ID NO: 10), a high affinity DNA ligand to bFGF, was chosen for conjugation with PEG via a primary amine-NHS coupling reaction. […] Ligand 225T3 was modified with a 3'-amino-modifier C7 CPG (Glen Research, Sterling, Va.) using standard DNA synthesis methods and will be referred to as 225T3N (SEQ ID NO:11). 225T3N was reacted with the N-hydroxysuccinimidyl (NHS) active ester of PEG (avg. MW 3400) in 20% (v/v) […] 80% (v/v) 0.5 M sodium bicarbonate buffered at pH 8.5. The resulting conjugate, 225T3N-PEG-3400 (SEQ ID NO: 14), was purified from the free DNA on a 12% polyacrylimide/7 M urea gel. The conjugate was 5' end-labeled with ^32P and a binding assay was performed.

[4] = target: T2, VEGF (vascular endothelial growth factor) (UniProt P15692-4 P15692-4:27-191); assay: competition; ED50, competition ELISA against biotin-labeled VEGF ligand on immobilized VEGF; printed 10^-9 M; conditions: chain copies: 2
T2 sequence (P15692 other isoform, or with tags, fused parts or gaps): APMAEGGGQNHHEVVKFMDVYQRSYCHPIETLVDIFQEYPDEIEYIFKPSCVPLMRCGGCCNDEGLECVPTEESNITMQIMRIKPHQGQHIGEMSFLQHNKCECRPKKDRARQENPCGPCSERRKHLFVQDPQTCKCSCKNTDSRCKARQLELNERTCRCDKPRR

[5] = target: T2, VEGF (vascular endothelial growth …); assay: competition; apparent ED50, competition ELISA; printed 10^-7 M; conditions: chain copies: 2
Description: (§1) NX278-Liposome Complex was prepared by incubating NX-278 (1 mg) (FIG. 1N; SEQ ID NO: 19) with of a mixture of DSPC:cholesterol (50 mg) in 10 mM phosphate (pH 7.4) buffer containing 9% sucrose and sonicated for 15–30 min using a probe-type sonicator until opalescent solution was obtained. The control Nucleic Acid Ligand-Liposome Complex containing a sequence scrambled analog of ligand NX-278 (scNX278) (FIG. 1W; SEQ ID NO:28) was prepared in the same manner. The size of Liposome particles (typically […]), determined in a particle analyzer (Leeds & Northrup Model Microtrack UPA 150, Horsham, Pa.) was similar to those obtained in the absence of the Nucleic Acid Ligand.

[6] = target: T2, VEGF (vascular endothelial growth …); assay: cell_activity; inhibition of HUVEC proliferation with 10 ng/ml VEGF; KS cells (KSY-1) IC50 about 100 nM; conditions: chain copies: 2
Description: The effects of NX278-liposome, scNX278-liposome and NX213 on the proliferation of human umbilical vein endothelial cells (HUVEC) and Kaposi's Sarcoma (KS) cells in tissue culture were examined. HUVECs were grown in the presence of VEGF (10 ng/ml) in IMDM:Ham's F12 (1:1) medium containing 10% fetal calf serum (FCS) and heparin (45 μg/ml). Cells were plated in 24-well gelatin-coated plates at a density of 20,000 cells per well on day zero and treated with the above ligands at concentrations between 0.1 nM to 1 μM on days 1, 2, and 3 (replacing the media along with the ligands). Cell count was performed on day 4. KS cell line KSY-1 was plated in 24-well gelatin coated plates at a density of 7,500–10,000 cells per well on day zero in medium containing RPMI 1640 supplemented with 2% FCS, L-glutamine, penicillin and streptomycin. Nucleic Acid Ligands were added at concentrations between 0.1 nM to 1 μM in fresh medium on day 1, 2, and 3 and the cell count was performed on day 4.

[7] = target: T2, VEGF (vascular endothelial growth …); assay: 1 uM not inhibitory in guinea pig Miles assay; conditions: chain copies: 2
Text: The ability of NX278-liposome to inhibit the vascular permeability activity of VEGF in vivo was examined.

[8] = target: T2, VEGF (vascular endothelial growth …); assay: competition; not an effective competitor up to 2 uM; conditions: chain copies: 2
Description: as §1

T1 sequence (P09038 143-288, one chain of several): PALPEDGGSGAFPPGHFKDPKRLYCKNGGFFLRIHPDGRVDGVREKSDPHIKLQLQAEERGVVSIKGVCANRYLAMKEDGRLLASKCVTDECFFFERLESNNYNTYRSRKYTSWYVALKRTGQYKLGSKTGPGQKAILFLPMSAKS

GCGGGGCTACGTACCGGGGCTTTGTAAAACCCCGC (ssDNA) [225T3] was tested, and the Kd [1] was 1 nM.

GCGGGGCTACGTACCGGGGCTTTGTAAAACCCCGC (ssDNA, 3'-tetraethyleneglycol cholesterol) [225T3-Cholesterol] was tested, and the Kd [2] was 1 nM.

GCGGGGCTACGTACCGGGGCTTTGTAAAACCCCGC (ssDNA, 3'-amino modifier C7 coupled to PEG (avg. MW 3400)) [225T3N-PEG-3400] gave a Kd [3] of 1 nM.

Binder TTTTACCCUGAUGGUAGACGCCGGGGUGTTTTT (mixed) [NX213] has an EC50 [4] of ~1 nM.

With TTTTACCCUGAUGGUAGACGCCGGGGUGTTTTT (mixed, 5'-dialkylglycerol (DAG), embedded in DSPC:cholesterol liposome) [NX278-liposome] the EC50 [5] was ~100 nM and the IC50 [6] was ~300 nM.

TTTTGUCGGUACGGAGUGGACCGUCACGTTTTT (mixed, dialkylglycerol (DAG), embedded in DSPC:cholesterol liposome) [scNX278-liposome] was tested, and the binding result [7] was “no binding” and the EC50 [8] was > 2000 nM.
